Assay results reported in PMC9312489, “Tertiary and Quaternary Structure Organization in GMP Synthetases: Implications for Catalysis” (Biomolecules, 2022).

B1: Native Plasmodium falciparum GMP synthetase (PfGMPSwt) (enzyme, UniProt Q8IJR9 1-555, looked up)
chain: MEGEEYDKILVLNFGSQYFHLIVKRLNNIKIFSETKDYGVELKDIKDMNIKGVILSGGPYSVTEAGSPHLKKEVFEYFLEKKIPIFGICYGMQEIAVQMNGEVKKSKTSEYGCTDVNILRNDNINNITYCRNFGDSSSAMDLYSNYKLMNETCCLFENIKSDITTVWMNHNDEVTKIPENFYLVSSSENCLICSIYNKEYNIYGVQYHPEVYESLDGELMFYNFAYNICKCKKQFDPIRYHELELKNIEKYKHDHYVIAAMSGGIDSTVAAAYTHKIFKERFFGIFIDNGLLRKNEAENVYTFLKSTFPDMNITKIDASENFLSNLQGVTDPEQKRKIIGKLFIEEFEKAVNNIDIDINKTFLLQGTLYPDIIESKCSKNLSDTIKTHHNVGGLPKNLKFKLFEPFKYLFKDDVKTLSRELNLPEEITNRHPFPGPGLAIRVIGEINKHKLNILREVDDIFINDLKQYGLYNQISQAFAVLLSSKSVGVRGDARSYDYVCVLRAVKTSSFMTANWYQIPYDILDKITTRILSEVKGVNRILYDVSSKPPATIEFE
notes: GMP synthetase of Plasmodium falciparum, native gene PF10_0123 (PlasmoDB); also called native enzyme; wild-type enzyme; source: E. coli (pQE30PfGMPS construct), purified (HisTrap HP, Superdex 200 SEC)
B2: PfGMPS_C89A (enzyme)
chain: MEGEEYDKILVLNFGSQYFHLIVKRLNNIKIFSETKDYGVELKDIKDMNIKGVILSGGPYSVTEAGSPHLKKEVFEYFLEKKIPIFGIAYGMQEIAVQMNGEVKKSKTSEYGCTDVNILRNDNINNITYCRNFGDSSSAMDLYSNYKLMNETCCLFENIKSDITTVWMNHNDEVTKIPENFYLVSSSENCLICSIYNKEYNIYGVQYHPEVYESLDGELMFYNFAYNICKCKKQFDPIRYHELELKNIEKYKHDHYVIAAMSGGIDSTVAAAYTHKIFKERFFGIFIDNGLLRKNEAENVYTFLKSTFPDMNITKIDASENFLSNLQGVTDPEQKRKIIGKLFIEEFEKAVNNIDIDINKTFLLQGTLYPDIIESKCSKNLSDTIKTHHNVGGLPKNLKFKLFEPFKYLFKDDVKTLSRELNLPEEITNRHPFPGPGLAIRVIGEINKHKLNILREVDDIFINDLKQYGLYNQISQAFAVLLSSKSVGVRGDARSYDYVCVLRAVKTSSFMTANWYQIPYDILDKITTRILSEVKGVNRILYDVSSKPPATIEFE
notes: GMP synthetase of Plasmodium falciparum (PF10_0123) with the catalytic Cys89 of the GATase domain mutated to alanine; made with pETPfGMPS as template; this is a point mutant made on the plasmid pETPfGMPS; also called C89A single mutant; single mutant enzyme; source: E. coli BL21-CodonPlus(DE3)-RIL (pETPfGMPS mutant construct), purified (HisTrap HP, Superdex 200 SEC)

Biological target: the molecule itself
Experiment: SAXS; samples in solution at ~12 mg/mL, beamline BM29 (ESRF), ATSAS analysis, ab initio shapes

| Protein | stoichiometry N |
| --- | --- |
| B1 | 2 |
| B2 | 2 |
